The values that follow are results of earlier work, collected in article PMC6538672.

The series concerns the target RMI1:RMI2 (Homo sapiens) (UniProt Q9H9A7).
UniProt Q9H9A7, sequence (Q9H9A7 whole entry, chain 1 of 2): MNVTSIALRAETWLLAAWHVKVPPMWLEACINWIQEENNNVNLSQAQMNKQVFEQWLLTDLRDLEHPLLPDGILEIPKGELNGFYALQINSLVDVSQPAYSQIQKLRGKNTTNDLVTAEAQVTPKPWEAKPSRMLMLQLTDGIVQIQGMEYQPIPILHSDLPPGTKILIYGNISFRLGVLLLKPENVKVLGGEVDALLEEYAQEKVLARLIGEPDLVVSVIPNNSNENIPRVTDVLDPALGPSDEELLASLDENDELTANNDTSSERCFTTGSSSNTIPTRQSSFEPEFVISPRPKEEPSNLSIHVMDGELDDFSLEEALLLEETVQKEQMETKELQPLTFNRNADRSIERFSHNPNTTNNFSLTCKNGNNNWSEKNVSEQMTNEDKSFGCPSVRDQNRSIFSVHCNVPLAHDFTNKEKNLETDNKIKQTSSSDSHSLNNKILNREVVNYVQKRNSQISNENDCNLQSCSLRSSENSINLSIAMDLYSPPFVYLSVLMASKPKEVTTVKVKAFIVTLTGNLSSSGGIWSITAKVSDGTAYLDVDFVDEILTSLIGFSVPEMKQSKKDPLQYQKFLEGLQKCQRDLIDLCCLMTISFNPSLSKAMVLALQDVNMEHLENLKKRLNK
UniProt Q9H9A7, sequence (Q96E14 2-147, chain 2 of 2, further chain): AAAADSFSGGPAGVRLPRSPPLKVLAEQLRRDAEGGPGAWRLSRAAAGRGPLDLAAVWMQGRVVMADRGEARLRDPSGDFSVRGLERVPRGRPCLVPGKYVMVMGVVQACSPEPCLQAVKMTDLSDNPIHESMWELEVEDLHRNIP

Regarding FANCM MM2 (from UniProt Q8IYD8), the dissociation constant (Kd) was 5 nM.

Usually Kd stands for the equilibrium constant for the complex coming apart.
